Measured values reported in article PMC11948038, “Evolutionary Pro‐To‐Thr Mutation in the Intrinsically Disordered Domain of ANP32 Family Members Modulates Their Target Binding Modes” (Advanced Science, 2025).

B1: ANP32B_(232-251) peptide (peptide)
peptide: EEGGKGEKRKRETDDEGEDD
notes: also called ANP32B peptide; source: synthetic peptide (Genecust, France)
B2: cytochrome c (natural protein)
chain: not shown
notes: cytochrome c (Cc), a hemeprotein; Carries a heme group; the reduced form was used in ITC and NMR relaxation; 15N-labelled for the NMR titrations; Expression and purification are in the Supporting Information Appendix; also called Cc; hemeprotein Cc; source: details in the Supporting Information
B3: ANP32A_(230-249) peptide (peptide)
peptide: EEERGQKRKREPEDEGEDDD
notes: also called ANP32A peptide; source: synthetic peptide (Genecust, France)
B4: ANP32B_(232-251) peptide (peptide)
peptide: EEGGKGEKRKRETDDEGEDD
notes: as for B1
B5: ANP32A_(230-249) P241T peptide (peptide)
peptide: EEERGQKRKRETEDEGEDDD
notes: also called single mutant; source: synthetic peptide (Genecust, France)
B6: ANP32A_(230-249) peptide (peptide)
peptide: EEERGQKRKREPEDEGEDDD
notes: also called ANP32A peptide; NLS-containing peptide; source: synthetic peptide (Genecust, France)
B7: ANP32A_(230-249) Q235E/P241T peptide (peptide)
peptide: EEERGEKRKRETEDEGEDDD
notes: also called double mutant; source: synthetic peptide (Genecust, France)

Columns and labels:
Conditions in all cases: both partners purified
HuR_(106-326) [1] = biological target: T1, HuR_(106-326) (UniProt Q15717 106-326); assay: ITC; 1 mM peptide titrated onto 100 µM HuR_(106-326); 10 mM sodium phosphate pH 6.3, low ionic strength
T1 construct: also called HuR construct containing the RRM domains 2 and 3, separated by the hinge region; source: details in the Supporting Information
T1 sequence (Q15717 106-326): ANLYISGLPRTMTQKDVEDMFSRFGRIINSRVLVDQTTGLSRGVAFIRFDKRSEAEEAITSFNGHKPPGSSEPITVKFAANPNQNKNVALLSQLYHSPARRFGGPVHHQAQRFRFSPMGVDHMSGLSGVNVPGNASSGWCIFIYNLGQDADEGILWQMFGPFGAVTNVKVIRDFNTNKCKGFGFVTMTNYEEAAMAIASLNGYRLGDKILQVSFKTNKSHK

cytochrome c = biological target: B2; assay: ITC; 1 mM peptide titrated onto 110 or 150 µM reduced Cc; 10 mM sodium phosphate pH 6.3; single binding-site model
full-length ANP32A [2] = biological target: T2, full-length ANP32A (human, UniProt P39687 1-249); assay: ITC; moderate ionic strength (100 mM): 20 mM sodium phosphate pH 7.4 with 50 mM NaCl; 400 µM reduced Cc injected into 50 µM ANP32A; single site
T2 construct: Used in ITC and NMR titrations; construct details are in the Supporting Information Appendix; also called acidic leucine-rich nuclear phosphoprotein 32 A; source: details in the Supporting Information

biotinylated ANP32A = biological target: T3, biotinylated ANP32A (human, UniProt P39687 1-249, biotin (site not stated)); assay: BLI; biotinylated ANP32 proteins on a streptavidin-coated sensor, increasing concentrations of Cc; wavelength shifts at equilibrium plotted against Cc concentration
T3 construct: ANP32A, human, biotinylated and attached to a streptavidin-coated sensor

biotinylated ANP32B = biological target: T4, biotinylated ANP32B (human, UniProt Q92688 1-251, biotin (site not stated)); assay: as above
T4 construct: ANP32B, human, biotinylated and attached to a streptavidin-coated sensor

full-length ANP32A [3] = biological target: T2, full-length ANP32A; assay: ITC; low ionic strength (25 mM): 10 mM sodium phosphate pH 7.4; 400 µM reduced Cc injected into 50 µM ANP32A construct; two-ligand binding sites model, no cooperativity
full-length ANP32A [4] = biological target: T2, full-length ANP32A; assay: as above; remark: listed apart in the source
HuR_(106-326) [5] = biological target: T5, HuR_(106-326) (UniProt Q15717 106-326); assay: ITC; 1 mM peptide titrated onto 100 µM HuR106-326 in the cell; 17 injections of 2.91 µL; 10 mM sodium phosphate buffer pH 6.3 (low ionic strength); stirring 200 rpm; Nano ITC Low Volume
T5 construct: amplified from a pGEX-4T-2 plasmid carrying full-length HuR; No cleavage of the tags is told; also called human antigen R construct with RRM2, hinge region and RRM3; source: E. coli BL21 (DE3), purified (Ni-NTA, dialysis)
T5 sequence (Q15717 106-326): as above

cytochrome c, sequence (P99999 2-105): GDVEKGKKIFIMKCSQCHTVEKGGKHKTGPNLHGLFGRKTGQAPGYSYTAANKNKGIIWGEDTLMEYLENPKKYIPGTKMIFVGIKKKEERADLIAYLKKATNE

Binder: B1
stoichiometry N (HuR_(106-326) [1]): 2 | Kd (cytochrome c): 710 µM | dH (cytochrome c): -8 kcal/mol | stoichiometry N (cytochrome c): 1.2 ± 0.03

Binder: B2
Kd (full-length ANP32A [2]): 32 µM | dH (full-length ANP32A [2]): 1.5 kcal/mol | stoichiometry N (full-length ANP32A [2]): 0.6 ± 0.03 | Kd (biotinylated ANP32A): ~2.3 µM | Kd (biotinylated ANP32B): ~4.2 µM | stoichiometry N (full-length ANP32A [3]): 2 | KD of site 1 (full-length ANP32A [4]): 3.6 µM | KD of site 2 (full-length ANP32A [4]): 34 µM | dH of site 1 (full-length ANP32A [4]): 0.4 kcal/mol | dH of site 2 (full-length ANP32A [4]): 8.6 kcal/mol

Binder: B3
Kd (HuR_(106-326) [5]): 120 µM | stoichiometry N (HuR_(106-326) [5]): 1.8 ± 0.03

Binder: B4
Kd (HuR_(106-326) [5]): 550 µM | stoichiometry N (HuR_(106-326) [5]): 1.9 ± 0.03

Binder: B5
Kd (cytochrome c): 190 µM | dH (cytochrome c): -6.9 kcal/mol | stoichiometry N (cytochrome c): 0.77 ± 0.03

Binder: B6
fold affinity against ANP32B_(232-251) (HuR_(106-326) [1]): ~5 fold | stoichiometry N (HuR_(106-326) [1]): 2 | Kd (cytochrome c): 69 µM | dH (cytochrome c): -2.6 kcal/mol | stoichiometry N (cytochrome c): 0.76 ± 0.03

Binder: B7
Kd (cytochrome c): 190 µM | dH (cytochrome c): -8.2 kcal/mol | stoichiometry N (cytochrome c): 0.77 ± 0.03
